The subject of data set [1] is KRas mutant-type (HCT116) colorectal cancer. Put plainly: In-vivo tumor formation experiment, HCT116 subcutaneous tumor. Also noted: species or system mice. To be noted: seven times. As to the method: (§1) • (1) Balb/c nude mice, female, 4 weeks to 5 weeks old, purchased from Guangdong Laboratory Animal Center and raised in Laboratory Animal Center of Sun Yat-sen University, were used in this experiment. […] After counting, 7.5 million HT29 and HCT116 cells were taken respectively, washed twice with PBS, centrifuged at 300 g for 5 minutes after fishing each washing, and collected. • (3) The cell dilution buffer solution having the composition of PBS: matrix glue (Corning Company)=1:1 was prepared to resuspend the cells. […] In the experiment, the administration volume was 150 μL, the administration frequency was once every three days at a fixed time, and the administration was continued for seven times. • (6) After the administration, each mouse was injected with 150 μL of tribromoethanol, and then killed by cervical dislocation. […]
(§2) • (1) Balb/c nude mice, female, 4 weeks to 5 weeks old, purchased from Guangdong Laboratory Animal Center and raised in Laboratory Animal Center of Sun Yat-sen University, were used in this experiment. The experimental mice were divided into two groups, with five mice in each group, which were respectively a phosphate buffer solution (PBS) control group and a […]. • (2) The HT29 and HCT116 cells in the logarithmic phase were digested with pancreatin, the digestion was stopped with the complete culture solution, and then the cells were counted. […]

For data set [2], the system named is HT29 cells. Description: Flow cytometry of tumor cell targeting, HT29. To be noted: tested as 60 nM TKD-Cy5, 1 hour, Lys 05 10 μM. The class given is cell-based, human. As for the experimental part: (§3) Wherein, the protein C18 column (25 cm×10 mm) was used, with sample injection of 2×400 μL each time, and gradient elution was carried out for 30 minutes, 0.1% TFA (trifluoroacetic acid) solution to MeCN (acetonitrile): H2O (0.1% TFA)=70:30, and a flow rate was 4 mL/min. • (4) Target color tape peaks were collected, and the retention time of a labeled polypeptide was longer than that of an unlabeled polypeptide. • (5) The TKD-Cy5 molecule was diluted to 60 μM, and stored in a PBS solution, and kept in the dark at −20° C. 2. […] The cells were treated with corresponding drugs, namely, in the experimental groups, the cells were treated with 60 nM TKD-Cy5 coupling molecule, and in the control groups, the cells were treated with the Cy5 single molecule with corresponding concentration. The lysosome inhibitor Lys 05 with the final concentration of 10 μM was added into the control groups and the experimental groups at the same time, and the final volume of the culture solution in each well was 1 mL. […] The cells were resuspended with the PBS buffer solution, and centrifuged again, and the supernatant was discarded. The operation was repeated for three times. Finally, the cleaned cells were resuspended in 0.2 mL of PBS, wrapped with foil paper, and then analyzed on the flow cytometer (company: BECKMAN COULTER; model: Cytoflex), with the fluorescence channel of APC-A.
(In general: Flow cytometry measures light scatter and fluorescence of single cells or particles in a stream.)

A short description of data set [3]: Residence time in vivo (serum western blot). Also noted: species or system mice. As for the experimental part: • (1) Balb/c nude mice, female, 4 weeks to 5 weeks old, purchased from Guangdong Laboratory Animal Center and raised in Laboratory Animal Center of Sun Yat-sen University, were used in this experiment. […] The serum protein concentration was measured by the BCA method (as described above). 20 μg of serum protein was respectively taken for the WB experiment (as described above), and whole serum protein gel running and Coomassie brilliant blue staining. • (4) Experimental results were shown in FIG. 19.

The subject of data set [4] is normal intestinal epithelial cells FHC. Put plainly: Flow cytometry of tumor cell targeting, normal cells FHC. Type of data set: cell-based, human. To be noted: tested as 60 nM TKD-Cy5, 1 hour, Lys 05 10 μM. As to the method:
as §3

Data set [5] has as its system KRas wild-type (HT29) colorectal cancer. Put plainly: In-vivo tumor formation experiment, HT29 subcutaneous tumor. Also noted: species or system mice. The conditions noted are these: seven times. As for the experimental part: as §1, §2
In data set [6] the test system is KRas protein in SW1116 (KRas G12D). Description: Western blot of KRas degradation in SW1116 cells. Type of data set: cell-based. The source says: Cell lines used in this embodiment were SW1116 (KRas G12D), SW480 (KRas G12V) and H358 (KRas G12C), all of which came from ATCC and have item numbers of CCL-233, CCL-228 and CRL-5800 respectively. The treatment process of each cell was consistent with that described in the influence of administration time on degradation of KRas above.

The test system of data set [7] is HT29 (KRas wt). Put plainly: Cell clone formation experiment, HT29. The conditions noted are these: 10 and 20 μg/mL.
Setting [8] is: TKD 25 and 50 mg/kg intraperitoneal, once every three days, vs PBS.

B1: TKD: fusion protein: tumour-cell-penetrating peptide BR2, anti-KRas nanobody VHH and lysosome recognition peptide CTM; SEQ ID NO.4 (protein)
chain: RAGLQFPVGRLLRRLLRDVQLQESGGGLVQAGGSLRLSCVASGRTFSTYPTGWFRQAPGKEREFVARINLSGGITNYADSVKGRFTISRDNAKNTVYLQMNSLKPEDTAVYYCGGGSTTWAGGIPTNFDYWGQGTQVTVSSGRKFERQKILDQRFFE
Turning to B1, the “inhibition of tumor growth (tumor weight)” value in data set [1] (setting [8]) and in data set [5] (setting [8]) was “could significantly inhibit the growth” throughout. Besides, the “tumor growth inhibition, TKD-50 mg/kg group compared with TKD-25 mg/kg group” value in data set [1] (intraperitoneal) and in data set [5] (intraperitoneal) was “had a better effect than the TKD-25 mg/kg group” each time. Besides, the “entry into cells (flow cytometry, Cy5 fluorescence)” value was “could specifically recognize and pass through the cell membrane to enter the colorectal cancer cells” in data set [2]; “could not enter the normal colorectal epithelial cells” in data set [4]. Besides, in data set [3] (50 mg/kg intraperitoneal once, 3 days after administration), the “detection in serum after administration (western blot)” value was “could still be detected”. For the same molecule, the “half-life period in vivo” value in data set [3] (inferred from serum detection 3 days after 50 mg/kg) is recorded as “long”. In data set [6], the “degradation of mutated KRas protein (western blot)” value is “could induce the degradation of the KRas proteins in different mutation states, and the degradation effect was remarkable”. Moreover, in data set [7], the “inhibition of clone growth” value is “could significantly inhibit the growth”.
